The values below come from the supplement of paper PMC9942255.

The data set has as its system Bacillus subtilis DB104 (SP-AmyQ fusion secretion). As to the kind of experiment: AmyQ secretion efficiency, weighted average sort bin (1 = best secretion, 10 = worst) (bin number (weighted average, 1-10)); higher = lower secretion efficiency. In a few lines: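 B. subtilis DB104 library expressing mature AmyQ fused to designed signal peptides (amyE-integrated) was encapsulated at about 0.3 cells per ~65 nL alginate bead with fluorescein-starch, grown about 13 h at room temperature and nile red stained. Occupied beads were sorted by large-particle flow cytometry into 10 equally populated bins by green/red fluorescence ratio, and each bin's amplicons were Illumina-sequenced. Secretion score is the read-frequency-weighted average bin number, normalised to beads per bin, excluding low-abundance sequences.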

Sequence MKMKSGMEQAVSVLLLLSRLPVQASLTSH had an AmyQ secretion efficiency of 7.82.

MKMKSGMEQAVSVLLLLSRLPVQASLTSR came in with an AmyQ secretion efficiency of 6.52.

Sequence MKMKSGMEQAVSVLLLLSRLPVQASNTSE returned an AmyQ secretion efficiency of 5.73.

The sequence MKMKSGMEQAVSVLLLLSRLPVQYSLTSE displayed an AmyQ secretion efficiency of 5.01.

Turning to MKNGGCKLVVSVTLFFSFLTIGPLAHAQNS, the AmyQ secretion efficiency is 3.26.

Turning to MKNLTKTSLLLAGLCTAAQMVFVTHASAEES, the AmyQ secretion efficiency came out at 3.46.

MKNMSCKGVVSVTLFFSFLTIGPLAHAQNS had an AmyQ secretion efficiency of 1.49.

Take MKNMSCKLKKSVTLFFSFLTIGPLAHAQNS: the AmyQ secretion efficiency is 3.34.

Sequence MKNMSCKLRKKKTLFFSFLTIGPLAHAQNS displayed an AmyQ secretion efficiency of 6.98.

On to MKNMSCKLRRRRKRFFSFLTIGPLAHAQNS, for which the AmyQ secretion efficiency is 7.37.

The sequence MKNMSCKLVVSVTLFFSFLDEDPLAHAQNS registered an AmyQ secretion efficiency of 2.75.

Turning to MKNMSCKLVVSVTLFFSFLDSTPGAHAQNS, the AmyQ secretion efficiency came out at 1.96.

For the sequence MKNMSCKLVVSVTLFFSFLFTIGPLAHAQNS, the AmyQ secretion efficiency was 1.19.

Consider MKNMSCKLVVSVTLFFSFLGGGPLAHAQNS, for which the AmyQ secretion efficiency turned out to be 1.53.

The sequence MKNMSCKLVVSVTLFFSFLGIFVLAHAQNS returned an AmyQ secretion efficiency of 4.32.

Take MKNMSCKLVVSVTLFFSFLKRRPLAHAQNS: the AmyQ secretion efficiency was 8.2.

Take MKNMSCKLVVSVTLFFSFLRKKKKKAHAQNS: the AmyQ secretion efficiency worked out at 6.96.

MKNMSCKLVVSVTLFFSFLTAHAQNS had an AmyQ secretion efficiency of 6.96.

MKNMSCKLVVSVTLFFSFLTIGPLAHADDE had an AmyQ secretion efficiency of 3.5.

Sequence MKNMSCKLVVSVTLFFSFLTIGPLAHAKRK came in with an AmyQ secretion efficiency of 2.49.

With MKNMSCKLVVSVTLFFSFLTIGPLAHAQED, the AmyQ secretion efficiency came to 2.36.

Sequence MKNMSCKLVVSVTLFFSFLTIGPLAHAQKR had an AmyQ secretion efficiency of 1.94.

With MKNMSCKLVVSVTLFFSFLTIGPLAHAQND, the AmyQ secretion efficiency is 1.22.

On to MKNMSCKLVVSVTLFFSFLTIGPLAHAQNR, for which the AmyQ secretion efficiency turned out to be 1.47.

MKNMSCKLVVSVTLFFSFLTIGPLAHCQNS returned an AmyQ secretion efficiency of 1.91.

In the case of MKNMSCKLVVSVTLFFSFLTIGPLAHDQNS, the AmyQ secretion efficiency turned out to be 6.5.

As for MKNMSCKLVVSVTLFFSFLTIGPLAHEQNS, the AmyQ secretion efficiency worked out at 5.71.

MKNMSCKLVVSVTLFFSFLTIGPLAHFQNS: the AmyQ secretion efficiency is 5.82.

In turn, MKNMSCKLVVSVTLFFSFLTIGPLAHGQNS returned an AmyQ secretion efficiency of 2.

On to MKNMSCKLVVSVTLFFSFLTIGPLAHLQNS, for which the AmyQ secretion efficiency came to 6.

With MKNMSCKLVVSVTLFFSFLTIGPLAHNQNS, the AmyQ secretion efficiency amounted to 5.52.

MKNMSCKLVVSVTLFFSFLTIGPLAHPQNS yielded an AmyQ secretion efficiency of 5.55.

Consider MKNMSCKLVVSVTLFFSFLTIGPLAHQQNS, for which the AmyQ secretion efficiency amounted to 5.78.

With MKNMSCKLVVSVTLFFSFLTIGPLAHRQNS, the AmyQ secretion efficiency was found to be 6.88.

In the case of MKNMSCKLVVSVTLFFSFLTIGPLAHSQNS, the AmyQ secretion efficiency turned out to be 2.01.

For the sequence MKNMSCKLVVSVTLFFSFLTIGPLAHTQNS, the AmyQ secretion efficiency amounted to 4.17.

Sequence MKNMSCKLVVSVTLFFSFLTIGPLAHVQNS showed an AmyQ secretion efficiency of 4.29.

MKNMSCKLVVSVTLFFSFLTIGPLAHWQNS yielded an AmyQ secretion efficiency of 5.85.

MKNMSCKLVVSVTLFFSFLTIGPLAHYQNS registered an AmyQ secretion efficiency of 6.66.

With MKNMSCKLVVSVTLFFSFLTIGPLAPVGVSPVAHAQNS, the AmyQ secretion efficiency came to 1.75.

Sequence MKNMSCKLVVSVTLFFSFLTIGPLCHAQNS yielded an AmyQ secretion efficiency of 1.32.

MKNMSCKLVVSVTLFFSFLTIGPLFHAQNS returned an AmyQ secretion efficiency of 5.19.

Regarding MKNMSCKLVVSVTLFFSFLTIGPLGHAQNS, the AmyQ secretion efficiency turned out to be 2.46.

Turning to MKNMSCKLVVSVTLFFSFLTIGPLHHAQNS, the AmyQ secretion efficiency worked out at 5.75.

Turning to MKNMSCKLVVSVTLFFSFLTIGPLIHAQNS, the AmyQ secretion efficiency was found to be 1.06.

Sequence MKNMSCKLVVSVTLFFSFLTIGPLLHAQNS returned an AmyQ secretion efficiency of 1.77.

In turn, MKNMSCKLVVSVTLFFSFLTIGPLMHAQNS registered an AmyQ secretion efficiency of 1.39.

Take MKNMSCKLVVSVTLFFSFLTIGPLNHAQNS: the AmyQ secretion efficiency amounted to 5.54.

The sequence MKNMSCKLVVSVTLFFSFLTIGPLQHAQNS yielded an AmyQ secretion efficiency of 5.15.

Sequence MKNMSCKLVVSVTLFFSFLTIGPLSHAQNS returned an AmyQ secretion efficiency of 2.11.

In the case of MKNMSCKLVVSVTLFFSFLTIGPLTHAQNS, the AmyQ secretion efficiency is 1.52.

For MKNMSCKLVVSVTLFFSFLTIGPLVFPFAHAQNS, the AmyQ secretion efficiency came out at 4.97.

In turn, MKNMSCKLVVSVTLFFSFLTIGPLVHAQNS gave an AmyQ secretion efficiency of 1.05.

In turn, MKNMSCKLVVSVTLFFSFLTIGPLYHAQNS displayed an AmyQ secretion efficiency of 5.32.

MKNMSCKLVVSVTLFFTIGPLAHAQNS yielded an AmyQ secretion efficiency of 2.62.

Regarding MKNMSCKTNLVVSVTLFFSFLTIGPLAHAQNS, the AmyQ secretion efficiency was 1.06.

MKNMSCKTSGSTTGGTSFLTIGPLAHAQNS displayed an AmyQ secretion efficiency of 6.59.

With MKNMSCKYQQGVTLFFSFLTIGPLAHAQNS, the AmyQ secretion efficiency turned out to be 6.89.

Sequence MKNMSKLVVSVTLFFSFLTIGPLAHAQNS returned an AmyQ secretion efficiency of 1.41.

As for MKNRKRKLVVSVTLFFSFLTIGPLAHAQNS, the AmyQ secretion efficiency is 1.21.

The sequence MKQCQKSRKRRRQFLVSLIIGTFVISVPFMANAQSD had an AmyQ secretion efficiency of 1.71.

Take MKQFAITLSVLCALILLVPTLLVIPFFHNKEAGASV: the AmyQ secretion efficiency amounted to 6.58.

Sequence MKQFAITLSVLCALILLVPTLLVIPFQHNKAAGASV had an AmyQ secretion efficiency of 4.37.

MKQFAITLSVLCALILLVPTLLVIPFQHNKEAKASV returned an AmyQ secretion efficiency of 5.85.

Consider MKQFAITLSVLCALILLVPTLLVIPFQHNKEAMASV, for which the AmyQ secretion efficiency was determined as 6.87.

The sequence MKQFAITLSVLCALILLVPTLLVIPFQHNKEAPASV returned an AmyQ secretion efficiency of 8.36.

MKQFAITLSVLCALILLVPTLLVIPFQHNKMAGASV: the AmyQ secretion efficiency was 5.07.

Turning to MKQFAITLSVLCALILLVPTLLVIPFVSAAEAGASV, the AmyQ secretion efficiency came out at 3.34.

Regarding MKQFAITLSVLCALILLVPTLLVIPRRKKRHKKEAGASV, the AmyQ secretion efficiency came to 5.51.

MKQGKFSKRLILLLMLTLVVAPKEKAEAASS gave an AmyQ secretion efficiency of 1.59.

As to MKQGKFSRYYKSLLMLTLVVAPKEKAEAASS, the AmyQ secretion efficiency turned out to be 6.74.

With MKQGKFSSFLILLLMLTLVVAPKEKAEAASS, the AmyQ secretion efficiency came out at 2.33.

On to MKQGKFSVFLILLLMLAPKEKAEAASS, for which the AmyQ secretion efficiency was 2.23.

For the sequence MKQGKFSVFLILLLMLTLVVAPKEKAEAAEE, the AmyQ secretion efficiency was found to be 2.62.

Regarding MKQGKFSVFLILLLMLTLVVAPKEKAEAASD, the AmyQ secretion efficiency is 1.02.

MKQGKFSVFLILLLMLTLVVAPKEKAEHASS had an AmyQ secretion efficiency of 4.93.

In the case of MKQGKFSVFLILLLMLTLVVAPKEKCEAASS, the AmyQ secretion efficiency was determined as 1.62.

Turning to MKQGKFSVFLILLLMLTLVVAPKEKEEAASS, the AmyQ secretion efficiency is 7.98.

In turn, MKQGKFSVFLILLLMLTLVVRRRKKRKAEAASS came in with an AmyQ secretion efficiency of 7.96.

MKQGKFSVFLILLLMLTLVVTIFAALVIAPKEKAEAASS returned an AmyQ secretion efficiency of 3.57.

MKQGKFSVKKKRKRMLTLVVAPKEKAEAASS gave an AmyQ secretion efficiency of 5.83.

MKQGKFSVKKRKLLMLTLVVAPKEKAEAASS yielded an AmyQ secretion efficiency of 8.14.

Sequence MKQGKFVFLILLLMLTLVVAPKEKAEAASS gave an AmyQ secretion efficiency of 1.74.

Sequence MKQGRTFLTSFMLLAMTGQTALAKDV came in with an AmyQ secretion efficiency of 4.71.

With MKQIKKKRTSFMLLAMTGQTALAKDV, the AmyQ secretion efficiency worked out at 6.55.

The sequence MKQIMIFLMIFMLLAMTGQTALAKDV gave an AmyQ secretion efficiency of 4.05.

Consider MKQIMIFLTSFMLLAMTGQTALAADE, for which the AmyQ secretion efficiency came out at 3.7.

MKQIMIFLTSFMLLAMTGQTCLAKDV registered an AmyQ secretion efficiency of 3.75.

MKQIMIFLTSFMLLAMTGQTTLAKDV yielded an AmyQ secretion efficiency of 3.1.

The sequence MKQIMIFLTSFMLLAMTGTTALAKDV yielded an AmyQ secretion efficiency of 3.67.

Sequence MKQIMIFLTSFMLLARRRRKKALAKDV gave an AmyQ secretion efficiency of 7.64.

Turning to MKQIMIFLTSFMMTGQTALAKDV, the AmyQ secretion efficiency was determined as 3.81.

Turning to MKQIRKKRKKFMLLAMTGQTALAKDV, the AmyQ secretion efficiency was determined as 7.04.

The sequence MKQKRGRKACLILFSFTITTFINTETISAFSN registered an AmyQ secretion efficiency of 3.84.

The sequence MKQKRKIIGWILLLCIIPLFAFTVIASGKEV registered an AmyQ secretion efficiency of 6.81.

For MKQRKRVSALTPSTTLAITAKAKEL, the AmyQ secretion efficiency was 7.26.

As to MKQRRIMIFLTSFMLLAMTGQTALAKDV, the AmyQ secretion efficiency was 3.05.

MKQTMIFLTSFMLLAMTGQTALAKDV displayed an AmyQ secretion efficiency of 3.23.

Turning to MKQTRSKQSSFMLLAMTGQTALAKDV, the AmyQ secretion efficiency worked out at 7.56.

Sequence MKRCKRLIVCSLAAILLLIPSVSFAADS displayed an AmyQ secretion efficiency of 3.14.

On to MKRCKRRRLIVCSLAAILLLIPSVSFAADS, for which the AmyQ secretion efficiency is 3.97.

MKRFILVLSFLSIIVAYPIQINASPM yielded an AmyQ secretion efficiency of 2.47.

For the sequence MKRFILVLSFLSIIVAYPIQSNASPM, the AmyQ secretion efficiency is 5.96.

MKRFILVLSFLSIIVAYPIQTNASPE displayed an AmyQ secretion efficiency of 2.06.

Take MKRFILVLSFLSIIVAYPIQVNASPM: the AmyQ secretion efficiency is 3.06.

For MKRFILVLSFLSIIVKKRIQTNASPM, the AmyQ secretion efficiency turned out to be 7.76.

In turn, MKRFILVLSFLSIIVKRRRRRTNASPM registered an AmyQ secretion efficiency of 7.31.

In the case of MKRFILVLSFLSIIVLVTSASSFLAYPIQTNASPM, the AmyQ secretion efficiency worked out at 5.04.
